The source of these data is EP4582447A1 (Quaerite Biopharm Research (Beijing) Co., Ltd., dated 2025).

As usually defined, the EC50 is the concentration at which the effect is half-maximal. A higher EC50 goes with weaker potency. For orientation: IC50 means the concentration needed to halve the response being measured. A high value points to lower potency. In general, Kd refers to the constant that tells how readily two partners part at equilibrium. A higher Kd goes with lower affinity. What is called koff is the first-order rate constant of dissociation. As usually defined, the kon is a measure of how fast the partners come together. Read a low kon as slow association.

Experiment [1] addresses T1, Human VEGFA165 (human, UniProt P15692-4 27-191).
T1 construct: treated as the same molecule; also called antigen VEGFA
The experiment in a line: ELISA, VEGFA coated 0.3 µg/mL, anti-His detection. On the technique in general: ELISA stands for enzyme-linked immunosorbent assay.

The target in experiment [2] is T1, Human VEGFA165. The experiment in a line: cell-based or functional assay.
Target sequence in this assay (P15692 other isoform, or with tags, fused parts or gaps limits assumed): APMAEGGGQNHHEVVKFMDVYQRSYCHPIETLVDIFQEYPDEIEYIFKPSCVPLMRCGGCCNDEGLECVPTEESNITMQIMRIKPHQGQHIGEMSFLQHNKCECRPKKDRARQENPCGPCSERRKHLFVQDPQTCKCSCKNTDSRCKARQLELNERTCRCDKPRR
The target of experiment [3] is T1, Human VEGFA165. The experiment in a line: competition ELISA on coated VEGFA, competitor VEGFR2-ECD-Fc 1 nM.
Target sequence in this assay (P15692 other isoform, or with tags, fused parts or gaps limits assumed): as above
The target in experiment [4] is T1, Human VEGFA165. The experiment in a line: phage ELISA, VEGFA coated 0.5 µg/mL, anti-M13(HRP).
Target sequence in this assay (P15692 other isoform, or with tags, fused parts or gaps limits assumed): as above
The next experiment deals with T2, human VEGFA121 (human, UniProt P15692-9 27-147).
T2 sequence (looked up): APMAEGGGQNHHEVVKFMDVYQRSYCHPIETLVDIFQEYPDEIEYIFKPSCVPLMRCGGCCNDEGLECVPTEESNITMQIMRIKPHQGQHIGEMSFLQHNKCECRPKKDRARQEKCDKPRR
The experiment in a line: ELISA, human VEGFA121 coated 0.3 µg/mL, anti-His detection.

Experiment [5] concerns the target T1, Human VEGFA165. The experiment in a line: SPR Biacore 8K, VEGFA165 amine-coupled on CM5, nanobody as analyte, 1:1 model. In general terms: In SPR one partner is held on a chip, and binding of the other changes the refractive index at the surface.
Target sequence in this assay (P15692 other isoform, or with tags, fused parts or gaps limits assumed): as the sequence (P15692 other isoform, or with tags, fused parts or gaps limits assumed) above
Experiment [6] has as its target 3% milk powder (negative control). The experiment in a line: phage ELISA, 3% milk powder coated (negative control), anti-M13(HRP).
Experiment [7] addresses T1, Human VEGFA165. The experiment in a line: SPR Biacore 8K, VEGFA165 amine-coupled on CM5, nanobody as analyte, 1:1 model. The source holds these as a separate data set.
Experiment [8] has as its target T1, Human VEGFA165. The experiment in a line: competition ELISA on coated VEGFA, competitor VEGFR2-ECD-Fc 2 nM.
Target sequence in this assay (P15692 other isoform, or with tags, fused parts or gaps limits assumed): as the sequence (P15692 other isoform, or with tags, fused parts or gaps limits assumed) above
In experiment [9] the target is T1, Human VEGFA165. The experiment in a line: ELISA, VEGFA coated 0.3 µg/mL, anti-His detection. This is another data set of the same source.
Target sequence in this assay (P15692 other isoform, or with tags, fused parts or gaps limits assumed): as the sequence (P15692 other isoform, or with tags, fused parts or gaps limits assumed) above
The target of experiment [10] is T1, Human VEGFA165. The experiment in a line: SPR, VEGFA165 on CM5.
The target in experiment [11] is T1, Human VEGFA165. The experiment in a line: phage ELISA, VEGFA coated 0.5 µg/mL, anti-M13(HRP).
The target in experiment [12] is T1, Human VEGFA165. The experiment in a line: SPR Biacore 8K, V1-SA1 amine-coupled on CM5, VEGFA165 as analyte, two state reaction model.
In experiment [13] the target is T1, Human VEGFA165. The experiment in a line: SPR Biacore 8K, V1-SA1 amine-coupled on CM5, VEGFA165 as analyte, two state reaction model (kd1).
Experiment [14] has as its target T1, Human VEGFA165. The experiment in a line: SPR Biacore 8K, V1-SA1 amine-coupled on CM5, VEGFA165 as analyte, two state reaction model (ka1).

Read-outs that look alike come from different tables or passages of the source. A value given as a limit tells only on which side of the number the result lay.

B1: linear tandem bivalent nanobody 2V15-9GS (VHH)
chain: QLQLVESGGGSVQPGGSLRLSCEVSGRTFASYTMGWFRQAPGKEREFVVAISKGGYKYDSVSLEARFTISKDNTKNTVYLQMNSLKPEDTAVYYCAGTRAYGSSRLRLAETYEYWGQGTQVTVSSGGGGSGGGSQLQLVESGGGSVQPGGSLRLSCEVSGRTFASYTMGWFRQAPGKEREFVVAISKGGYKYDSVSLEARFTISKDNTKNTVYLQMNSLKPEDTAVYYCAGTRAYGSSRLRLAETYEYWGQGTQVTVSS
notes: no further tag added here
For the molecule B1, in the experiment with Human VEGFA165 [1], a half-maximal response (EC50) required 0.25 nM. In other words, the sub-nanomolar range.

B2: V1 (VHH)
VHH: QLQLVESGGGSVQPGGSLRLSCEVSGRTFSSYTMGWFRQAPGKEREFVVAISKGGYKYDSVSLEARFTISKDNTKNTVYLQMNSLKPEDTAVYYCAATRAYGSSRLRLADTYEYWGQGTQVTVSS
notes: also called candidate antibody V1; antibody V1
For the molecule B2, in the experiment with Human VEGFA165 [2], the “IC50 (pM), inhibition of VEGFA-stimulated HUVEC proliferation (CCK-8)” value (“IC50 (pM), inhibition” for short) was 2690 pM and the “Maximum inhibition rate (%) of HUVEC proliferation” value was determined as 103%. In addition, in the experiment with Human VEGFA165 [3], the IC50 was determined as 5.59 nM and the “Maximum inhibition rate (%)” value turned out to be 90.5%. This molecule returned an OD450 in the experiment with Human VEGFA165 [4] of 2.31 OD450. Also, in the experiment with human VEGFA121, the EC50 was found to be 1.27 nM. In the experiment with Human VEGFA165 [5], this molecule registered a Kd of 0.247 nM, a koff of 0.000101 s⁻¹ and a kon of 409000 M⁻¹ s⁻¹. Moreover, the OD450 in experiment [6] turned out to be 0.0377 OD450. In the experiment with Human VEGFA165 [7], this molecule had a Kd of 0.247 nM, a koff of 0.000101 s⁻¹ and a kon of 409000 M⁻¹ s⁻¹. In the experiment with Human VEGFA165 [8], the IC50 worked out at 26.4 nM and the “Maximum inhibition rate (%)” value amounted to 95%. Also, in the experiment with Human VEGFA165 [9], the EC50 was found to be 0.53 nM. Besides, the “fold difference of KD from the positive control BI-VEGF ab” value (from here on “fold difference of KD”) with Human VEGFA165 [10] was under 3 fold.

B3: V21 (VHH)
VHH: QLQLVESGGGSVQPGGSLRLSCEVSGRTFTSYTMGWFRQAPGKEREFVVAISKGGYKYNTVSLEARFTISKDNTKNTVYLQMNSLKPEDTAVYYCAGTRAYGSSRLRLAETYEYWGQGTQVTVSS
notes: Purified with C-terminal GGGGS-6×His
In turn, B3 displayed an IC50 with Human VEGFA165 [3] of 4.62 nM. Further, in the experiment with Human VEGFA165 [3], the “Maximum inhibition rate (%)” value is 88.3%. The values for the OD450 (with Human VEGFA165 [4]; in [6]) were 2.15 OD450 and 0.0186 OD450, respectively.

B4: V6 (VHH)
VHH: QLQLVESGGGSVQPGGSLRLSCEVSGRTFSSYTMGWFRQAPGKEREFVVAISKGGYKYDTVSLEARFTISKDNTKNTVYLQMNSLKPEDTAVYYCAGTRAYGSSRLKLADTYEYWGQGTQVTVSS
As for B4, the figures for the OD450 (in the experiment with Human VEGFA165 [11]; in [6]) were 1.36 OD450 and 0.0473 OD450, respectively.

B5: V14 (VHH)
VHH: QLQLVESGGGSVQPGGSLRLSCEVSGRTFTSYTMGWFRQAPGKEREFVVAISKGGYKYNTVSLEARFTISKDNTKNTVYLQMNSLKPEDTAVYYCAGTRAYGSSRLRLANTYEYWGQGTQVTVSS
notes: as for B3
As for B5, in the experiment with Human VEGFA165 [3], the IC50 worked out at 4.58 nM and the “Maximum inhibition rate (%)” value worked out at 94.9%. In the experiment with Human VEGFA165 [4], this molecule registered an OD450 of 2.03 OD450. The same molecule gave an OD450 in [6] of 0.0252 OD450.

B6: V19 (VHH)
VHH: QLQLVESGGGSVQPGGSLRLSCEVSGRTFSSYTMGWFRQAPGKEREFVVAISKGGYKYNSVSLEARFTISKDNTKNTVYLQMNSLKPEDTAVYYCAATRAYGSSRLKLANTYEYWGQGTQVTVSS
B6: the values for the OD450 (with Human VEGFA165 [11]; in experiment [6]) were 2.47 OD450 and 0.0273 OD450, respectively.

B7: V8 (VHH)
VHH: QLQLVESGGGSVQPGGSLRLSCEVSGRTFSSYTMGWFRQAPGKEREFVVAISKGGYKYNTVSLEARFTISKDNTKNTVYLQMNSLKPEDTAVYYCAGTRAYGSSRLKLAETYEYWGQGTQVTVSS
Consider B7, for which the OD450 in the experiment with Human VEGFA165 [11] was 0.924 OD450; in [6] it was 0.0236 OD450.

B8: V25 (VHH)
VHH: QLQLVESGGGSVQPGGSLRLSCEVSGRTFTSYTMGWFRRAPGKEREFVVAISKGGYKYDSVSLEARFTISKDNTKNTVYLQMNSLKPEDTAVYYCAGTRAYGSSRLKLAKTYEYWGQGTQVTVSS
For the molecule B8, the OD450 with Human VEGFA165 [11] was 1.29 OD450; in experiment [6], 0.0354 OD450.

B9: V18 (VHH)
VHH: QLQLVESGGGSVQPGGSLRLSCEVSGRTFSSYTMGWFRQAPGKEREFVVAISKGGYKYNSVSLEARFTISKDNTKNTVYLQMNSLKPEDTAVYYCAGTRAYGSSRLRLADTYEYWGQGTQVTVSS
Take B9: the results for the OD450 (with Human VEGFA165 [11]; in experiment [6]) were 2.94 OD450 and 0.0134 OD450, respectively.

B10: V22 (VHH)
VHH: QLQLVESGGGSVQPGGSLRLSCEVSGRTFSSYTMGWFRQAPGKEREFVVAISKGGYKYDSVSLEARFTISKDNTKNTVYLQMNSLKPEDTAVYYCAATRAYGSSRLKLADTYEYWGQGTQVTVSS
For B10, the OD450 in the experiment with Human VEGFA165 [11] was 1.64 OD450; in experiment [6] it was 0.0353 OD450.

B11: V15 (VHH)
VHH: QLQLVESGGGSVQPGGSLRLSCEVSGRTFASYTMGWFRQAPGKEREFVVAISKGGYKYDSVSLEARFTISKDNTKNTVYLQMNSLKPEDTAVYYCAGTRAYGSSRLRLAETYEYWGQGTQVTVSS
notes: Purified with C-terminal GGGGS-6×His; also called candidate antibody V15
In the case of B11, in the experiment with Human VEGFA165 [2], the “IC50 (pM), inhibition” value is 7120 pM and the “Maximum inhibition rate (%) of HUVEC proliferation” value came out at 84.2%. Further, in the experiment with Human VEGFA165 [3], the IC50 turned out to be 3.89 nM and the “Maximum inhibition rate (%)” value is 94.6%. The same molecule registered an OD450 in the experiment with Human VEGFA165 [4] of 1.87 OD450. Besides, the OD450 in [6] amounted to 0.0126 OD450. Besides, in the experiment with Human VEGFA165 [7], the Kd was 0.277 nM, the off-rate (koff) came out at 9.61e-05 s⁻¹ and the kon stood at 347000 M⁻¹ s⁻¹. Besides, in the experiment with Human VEGFA165 [8], the 50% inhibitory concentration (IC50) is 29.3 nM and the “Maximum inhibition rate (%)” value was determined as 71.6%. For the same molecule, in the experiment with Human VEGFA165 [9], the EC50 is 0.89 nM. In addition, in the experiment with Human VEGFA165 [10], the “fold difference of KD” value is under 3 fold.

B12: V1-SA1 (VHH)
VHH: EVQLVESGGGLVQPGGSLRLSCAVSGRTFSSYTMGWFRQAPGKEREFVVAISKGGYKYDSVSLEARFTISRDNAKNTVYLQMNSLRPEDTAVYYCAATRAYGSSRLRLADTYEYWGQGTLVTVSS
notes: Humanized V1; also called humanized antibody V1-SA1; monovalent nanobody V1-SA1
Take B12: the Kd in the experiment with Human VEGFA165 [12] stood at 4.38 nM. The koff with Human VEGFA165 [13] was determined as 0.0598 s⁻¹. For the same molecule, the kon in the experiment with Human VEGFA165 [14] is 1.06e+06 M⁻¹ s⁻¹. Besides, in the experiment with Human VEGFA165 [8], the 50% inhibitory concentration (IC50) is 22.5 nM and the “Maximum inhibition rate (%)” value was found to be 94.6%.

B13: V17 (VHH)
VHH: QLQLVESGGGSVQPGGSLRLSCEVSGRTFSSYTMGWFRQAPGKEREFVVAISKGGYKYDTVSLEARFTISKDNTKNTVYLQMNSLKPEDTAVYYCAATRAYGSSRLRLAKTYEYWGQGTQVTVSS
notes: as for B3
B13: in the experiment with Human VEGFA165 [3], the IC50 came out at 16.3 nM and the “Maximum inhibition rate (%)” value stood at 80.4%. This molecule also yielded an OD450 with Human VEGFA165 [4] of 3.47 OD450. Moreover, in experiment [6], the OD450 worked out at 0.0403 OD450.

B14: V13 (VHH)
VHH: QLQLVESGGGSVQPGGSLRLSCEVSGRTFTSYTMGWFRQAPGKEREFVVAISKGGYKYDAVSLEARFTISKDNTKNTVYLQMNSLKPEDTAVYYCAGTRAYGSSRLRLADTYEYWGQGTQVTVSS
notes: Purified with C-terminal GGGGS-6×His; also called candidate antibody V13
For the molecule B14, in the experiment with Human VEGFA165 [2], the “IC50 (pM), inhibition” value was 3940 pM and the “Maximum inhibition rate (%) of HUVEC proliferation” value amounted to 94.7%. Besides, in the experiment with Human VEGFA165 [4], the OD450 is 2.14 OD450. In [6], this molecule registered an OD450 of 0.0144 OD450. For the same molecule, in the experiment with Human VEGFA165 [7], the affinity, expressed as Kd, was 0.224 nM; the koff turned out to be 8.65e-05 s⁻¹; the kon is 386000 M⁻¹ s⁻¹. The “fold difference of KD” value with Human VEGFA165 [10] was under 3 fold.
